The supplement of paper PMC5998384

Assays:
[1] = system: HeLa Kyoto; experiment: solubility in G1/S (NP-40 vs SDS abundance) (log2 ratio); higher = more soluble; settings: cell cycle stage: G1/S
[2] = system: HeLa Kyoto; experiment: melting temperature (median over replicates), in situ; higher = more thermally stable
[3] = system: HeLa Kyoto; experiment: solubility change mitosis vs G1/S (difference of NP-40 vs SDS log2 ratios) (log2 ratio difference); higher = more soluble in mitosis
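Throughout, for melting temperature (median over replicates), in situ: HeLa Kyoto cells synchronized by double thymidine or nocodazole block, proteins quantified by TMT10plex mass spectrometry, three independent biological replicates.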
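Throughout, for solubility change mitosis vs G1/S (difference of NP-40 vs SDS log2 ratios): synchronized HeLa Kyoto cells (double thymidine block for G1/S, nocodazole release for mitosis), protein amounts in NP-40 versus SDS lysates quantified by mass spectrometry, three biological replicates.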
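Throughout, for solubility in G1/S (NP-40 vs SDS abundance): HeLa Kyoto cells arrested at G1/S by double thymidine block, proteins quantified by TMT10plex mass spectrometry in mild NP-40 versus SDS extracts, three biological replicates.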

Sequence | solubility in G1/S (log2) [1] | melting temperature ([2]; cell cycle stage: G1/S) | melting temperature ([2]; cell cycle stage: mitosis) | solubility change mitosis (log2) [3]
MAGQHLPVPRLEGVSREQFMQHLYPQRKPLVLEGIDLGPCTSKWTVDYLSQVGGKKEVKIHVAAVAQMDFISKNFVYRTLPFDQLVQRAAEEKHKEFFVSEDEKYYLRSLGEDPRKDVADIRKQFPLLKGDIKFPEFFKEEQFFSSVFRISSPGLQLWTHYDVMDNLLIQVTGKKRVVLFSPRDAQYLYLKGTKSEVLNIDNPDLAKYPLFSKARRYECSLEAGDVLFIPALWFHNVISEEFGVGVNIFWKHLPSECYDKTDTYGNKDPTAASRAAQILDRALKTLAELPEEYRDFYARRMVLHIQDKAYSKNSE [TYW5] | -0.0115 | 53.8 °C | 53.8 °C | -0.114
MAICQFFLQGRCRFGDRCWNEHPGARGAGGGRQQPQQQPSGNNRRGWNTTSQRYSNVIQPSSFSKSTPWGGSRDQEKPYFSSFDSGASTNRKEGFGLSENPFASLSPDEQKDEKKLLEGIVKDMEVWESSGQWMFSVYSPVKKKPNISGFTDISPEELRLEYHNFLTSNNLQSYLNSVQRLINQWRNRVNELKSLNISTKVALLSDVKDGVNQAAPAFGFGSSQAATFMSPGFPVNNSSSDNAQNFSFKTNSGFAAASSGSPAGFGSSPAFGAAASTSSGISTSAPAFGFGKPEVTSAASFSFKSPAASSFGSPGFSGLPASLATGPVRAPVAPAFGGGSSVAGFGSPGSHSHTAFSKPSSDTFGNSSISTSLSASSSIIATDNVLFTPRDKLTVEELEQFQSKKFTLGKIPLKPPPLELLNV [NUPL2] | -0.304 |  | 51.7 °C | 0.326
MALFPAFAGLSEAPDGGSSRKELDWLSNPSFCVGSITSLSQQTEAAPAHVSEGLPLTRSHLKSESSDESDTNKKLKQTSRKKKKEKKKKRKHQHHKKTKRKHGPSSSSRSETDTDSEKDKPSRGVGGSKKESEEPNQGNNAAADTGHRFVWLEDIQAVTGETFRTDKKPDPANWEYKSLYRGDIARYKRKGDSCLGINPKKQCISWEGTSTEKKHSRKQVERYFTKKSVGLMNIDGVAISSKTEPPSSEPISFIPVKDLEDAAPVTTWLNPLGIYDQSTTHWLQGQGPPEQESKQPDAQPDSESAALKAKVEEFNRRVRENPRDTQLWMAFVAFQDEVMKSPGLYAIEEGEQEKRKRSLKLILEKKLAILERAIESNQSSVDLKLAKLKLCTEFWEPSTLVKEWQKLIFLHPNNTALWQKYLLFCQSQFSTFSISKIHSLYGKCLSTLSAVKDGSILSHPALPGTEEAMFALFLQQCHFLRQAGHSEKAISLFQAMVDFTFFKPDSVKDLPTKGQVEFFEPFWDSGEPRAGEKGARGWKAWMHQQERGGWVVINPDEDDDEPEEDDQEIKDKTLPRWQIWLAAERSRDQRHWRPWRPDKTKKQTEEDCEDPERQVLFDDIGQSLIRLSSHDLQFQLVEAFLQFLGVPSGFTPPASCLYLAMDENSIFDNGLYDEKPLTFFNPLFSGASCVGRMDRLGYPRWTRGQNREGEEFIRNVFHLVMPLFSGKEKSQLCFSWLQYEIAKVIWCLHTKNKKRLKSQGKNCKKLAKNLLKEPENCNNFCLWKQYAHLEWLLGNTEDARKVFDTALGMAGSRELKDSDLCELSLLYAELEVELSPEVRRAATARAVHILTKLTESSPYGPYTGQVLAVHILKARKAYEHALQDCLGDSCVSNPAPTDSCSRLISLAKCFMLFQYLTIGIDAAVQIYEQVFAKLNSSVFPEGSGEGDSASSQSWTSVLEAITLMHTSLLRFHMKVSVYPLAPLREALSQALKLYPGNQVLWRSYVQIQNKSHSASKTRRFFDTITRSAKPLEPWLFAIEAEKLRKRLVETVQRLDGREIHATIPETGLMHRIQALFENAMRSDSGSQCPLLWRMYLNFLVSLGNKERSKGVFYKALQNCPWAKVLYLDAVEYFPDEMQEILDLMTEKELRVRLPLEELELLLED [NRDE2] | -0.208 | 48.5 °C | 49 °C | -0.031
MANSANTNTVPKLYRSVIEDVINDVRDIFLDDGVDEQVLMELKTLWENKLMQSRAVDGFHSEEQQLLLQVQQQHQPQQQQHHHHHHHQQAQPQQTVPQQAQTQQVLIPASQQATAPQVIVPDSKLIQHMNASNMSAAATAATLALPAGVTPVQQILTNSGQLLQVVRAANGAQYIFQPQQSVVLQQQVIPQMQPGGVQAPVIQQVLAPLPGGISPQTGVIIQPQQILFTGNKTQVIPTTVAAPTPAQAQITATGQQQPQAQPAQTQAPLVLQVDGTGDTSSEEDEDEEEDYDDDEEEDKEKDGAEDGQVEEEPLNSEDDVSDEEGQELFDTENVVVCQYDKIHRSKNKWKFHLKDGIMNLNGRDYIFSKAIGDAEW [GTF2A1] | -0.719 | 56.2 °C | 57.2 °C | 0.475
MAQETNHSQVPMLCSTGCGFYGNPRTNGMCSVCYKEHLQRQNSSNGRISPPATSVSSLSESLPVQCTDGSVPEAQSALDSTSSSMQPSPVSNQSLLSESVASSQLDSTSVDKAVPETEDVQASVSDTAQQPSEEQSKSLEKPKQKKNRCFMCRKKVGLTGFECRCGNVYCGVHRYSDVHNCSYNYKADAAEKIRKENPVVVGEKIQKI [ZFAND6] | 0.396 | 56.7 °C |  | -0.182
MASTGSQASDIDEIFGFFNDGEPPTKKPRKLLPSLKTKKPRELVLVIGTGISAAVAPQVPALKSWKGLIQALLDAAIDFDLLEDEESKKFQKCLHEDKNLVHVAHDLIQKLSPRTSNVRSTFFKDCLYEVFDDLESKMEDSGKQLLQSVLHLMENGALVLTTNFDNLLELYAADQGKQLESLDLTDEKKVLEWAQEKRKLSVLHIHGVYTNPSGIVLHPAGYQNVLRNTEVMREIQKLYENKSFLFLGCGWTVDDTTFQALFLEAVKHKSDLEHFMLVRRGDVDEFKKLRENMLDKGIKVISYGDDYADLPEYFKRLTCEISTRGTSAGMVREGQLNGSSAAHSEIRGCST [FAM118B] | 0.418 | 49.3 °C | 50.5 °C | -0.123
MAVSGFTLGTCILLLHISYVANYPNGKVTQSCHGMIPEHGHSPQSVPVHDIYVSQMTFRPGDQIEVTLSGHPFKGFLLEARNAEDLNGPPIGSFTLIDSEVSQLLTCEDIQGSAVSHRSASKKTEIKVYWNAPSSAPNHTQFLVTVVEKYKIYWVKIPGPIISQPNAFPFTTPKATVVPLPTLPPVSHLTKPFSASDCGNKKFCIRSPLNCDPEKEASCVFLSFTRDDQSVMVEMSGPSKGYLSFALSHDQWMGDDDAYLCIHEDQTVYIQPSHLTGRSHPVMDSRDTLEDMAWRLADGVMQCSFRRNITLPGVKNRFDLNTSYYIFLADGAANDGRIYKHSQQPLITYEKYDVTDSPKNIGGSHSVLLLKVHGALMFVAWMTTVSIGVLVARFFKPVWSKAFLLGEAAWFQVHRMLMFTTTVLTCIAFVMPFIYRGGWSRHAGYHPYLGCIVMTLAVLQPLLAVFRPPLHDPRRQMFNWTHWSMGTAARIIAVAAMFLGMDLPGLNLPDSWKTYAMTGFVAWHVGTEVVLEVHAYRLSRKVEILDDDRIQILQSFTAVETEGHAFKKAVLAIYVCGNVTFLIIFLSAINHL [FRRS1] | 0.0918 | 58.8 °C |  | 0.186
